Consider 2 molecules from patent publication US20220251174A1 (published 2022).

Experiment [1] deals with SARS-CoV-2 Spike RBD (tagless) (UniProt P0DTC2 319-541). Kind of experiment: BLI. A general note: Biolayer interferometry detects binding as a change in optical thickness at a sensor tip.
Another experiment concerns the target SARS-CoV-2 Spike (). Kind of experiment: BLI.

B1: 23-H7 Fab (Fab, V domains shown)
VH: QVQLVQSGAEVKLPGASMKVSCKASGYTFSTYYMHWVRQAPGQGPEWMGVIDPSGGTTSYAQKFHDRIAMTRDTSTSTAYLELSSLRSEDMAVYYCARGGFADAVDYWGQGTLVTVSS
VL: NFMLTQPHSVSGSPGKTVTISCTRNSGSIAGNYVQWYQQRPGSAPTTVIYEDNQRPSGVPDRFSGSIDSSSNSASLTISGLKTEDEADYYCQSYDASHLHVIFGGGTKVTVL
B1 gave an IC50 in experiment [1] of 0.0046 µM.

B2: 22-E7 (full-length human IgG1) (antibody, V domains shown)
VH: QVQLVESGGGVVQPGTSLRLSCAASGFTFNNYPMFWVRQAPGKGLEWLALISYDGNHKVYADSVKGRFTISRDNAKNTLYLQMHSLRAEDTALYYCASDLSGAEDSWGQGTLVTVSS
VL: QSALTQPASVSGSPGQSITISCTGTSSDVGGYNYVSWYQQHPGKAPKLLIYEVSNRPSGVSNRFSGSKSGNTASLTISGLQAEDEADYYCSSYTSSSTWVFGGGTKLTVL
In the experiment with SARS-CoV-2 Spike (), B2 gave a Kd of 0.248 µM.

For orientation: IC50 means the concentration needed to halve the response being measured. As a reminder, the Kd is a measure of binding affinity in units of concentration. Higher therefore signals weaker binding.
